Values of other authors, collected in PMC6425487.

Molecular target: Cterm (position 6, KEKGLF-----)
Assay: NMR
Details: 150 mM; free peptide in solution

In the case of KEKGLF, the pKa is given as 3.2.
